Assay results from US20190382455A1 (Sanofi, published 2019).

How the values were obtained:
[1] = target: T1, MMP-9 proform (UniProt P14780 20-707); test: SPR (Biacore T200), biotinylated fusion molecule captured on CAP chip, MMP-9 proform as analyte
T1 construct: Used as analyte in SPR; also called proform MMP-9; proform MMP9

[2] = target: T2, activated MMP-9 (UniProt P14780 107-707, limits assumed); test: SPR (Biacore T200), biotinylated fusion molecule captured on CAP chip, activated MMP-9 as analyte
T2 construct: Used as analyte in SPR
T2 sequence (P14780 107-707 limits assumed): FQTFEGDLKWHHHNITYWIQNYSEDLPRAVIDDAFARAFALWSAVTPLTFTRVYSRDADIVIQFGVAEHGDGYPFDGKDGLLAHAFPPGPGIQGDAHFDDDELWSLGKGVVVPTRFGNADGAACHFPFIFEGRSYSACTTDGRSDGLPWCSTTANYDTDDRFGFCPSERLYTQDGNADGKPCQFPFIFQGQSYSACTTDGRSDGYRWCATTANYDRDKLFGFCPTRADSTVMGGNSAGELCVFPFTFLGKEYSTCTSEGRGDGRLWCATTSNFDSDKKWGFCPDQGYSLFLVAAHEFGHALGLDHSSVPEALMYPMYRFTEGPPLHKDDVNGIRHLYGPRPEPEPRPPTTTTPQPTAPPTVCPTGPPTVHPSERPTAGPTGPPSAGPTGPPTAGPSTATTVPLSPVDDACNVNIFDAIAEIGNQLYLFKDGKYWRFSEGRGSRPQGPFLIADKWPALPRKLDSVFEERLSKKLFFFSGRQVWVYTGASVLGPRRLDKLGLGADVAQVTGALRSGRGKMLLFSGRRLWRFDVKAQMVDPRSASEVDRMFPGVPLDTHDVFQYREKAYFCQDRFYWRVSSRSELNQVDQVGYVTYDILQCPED

T1 sequence (P14780 20-707 limits assumed): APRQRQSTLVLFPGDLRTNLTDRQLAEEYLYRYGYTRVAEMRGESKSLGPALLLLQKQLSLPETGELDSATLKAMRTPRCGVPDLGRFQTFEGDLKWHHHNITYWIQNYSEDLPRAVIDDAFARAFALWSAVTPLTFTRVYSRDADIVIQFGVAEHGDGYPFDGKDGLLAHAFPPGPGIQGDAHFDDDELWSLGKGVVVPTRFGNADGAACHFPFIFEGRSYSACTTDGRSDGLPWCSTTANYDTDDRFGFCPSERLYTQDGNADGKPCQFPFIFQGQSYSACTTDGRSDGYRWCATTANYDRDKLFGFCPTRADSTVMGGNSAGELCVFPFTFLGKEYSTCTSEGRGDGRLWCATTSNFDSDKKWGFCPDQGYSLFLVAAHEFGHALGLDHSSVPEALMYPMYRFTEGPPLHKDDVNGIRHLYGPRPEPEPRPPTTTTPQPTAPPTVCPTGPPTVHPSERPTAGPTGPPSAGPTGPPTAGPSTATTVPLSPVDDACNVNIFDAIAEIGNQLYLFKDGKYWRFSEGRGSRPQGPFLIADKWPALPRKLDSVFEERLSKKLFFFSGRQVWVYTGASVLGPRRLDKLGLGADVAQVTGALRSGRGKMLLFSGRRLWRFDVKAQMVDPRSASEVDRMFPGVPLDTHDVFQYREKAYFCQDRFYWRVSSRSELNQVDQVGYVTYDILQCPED

B1: fusion molecule of SEQ ID NO: 134 (designed binder)
chain: QDSTSDLIPAPPLSKVPLQQNFQDNQFQGKWYVVGVAGNTILREDKDPGKMNAAIYELKEDKSYDVTDVRFIRKKCHYYIDTFVPGSQPGEFTLGNIKSYPGTTSQLVRVVSTNYNQHAMVFFKIVRQNREIFWITLYGRTKELTSELKENFIRFSKSLGLPENHIVFPVPIDQCIDGGGGGSGGGGSQDSTSDLIPAPPLSKVPLQQNFQDNQFQGKWYVVGWAGNTALREDKDPPKMPAVIYELKEDKSYDVTDVQFPEKECIYSTITFVPGSQPGEFTLGGIKSSPGQTSHLVRVVSTNYNQHAMVFFKYVTQNREGFNIALYGRTKELTSELKENFIRFSKSLGLPENHIVFPVPIDQCIDGGGGGSGGGGSQDSTSDLIPAPPLSKVPLQQNFQDNQFQGKWYVVGEAGNLARREDKDPMKMMATIYELKEDKSYDVTEVRFRHKKCKYDIVTFVPGSQPGEFTLGLIKSDPGQTPELVRVVSTNYNQHAMVFFKKVVQNREYFWITLYGRTKELTSELKENFIRFSKSLGLPENHIVFPVPIDQCIDGGGGGSGGGGSQDSTSDLIPAPPLSKVPLQQNFQDNQFQGKWYVVGHAGNQWLREGRDPRKMWATIYELKEDKSYDVTDVDFAIKKCLYRITTFVPGSQPGEFTLGNIKSHPGGTSGLVRVVSTNYNQHAMVFFKFVIQNREAFFITLYGRTKELTSELKENFIRFSKSLGLPENHIVFPVPIDQCIDG
modifications: biotinylated with EZ-Link NHS-PEG4-Biotin for capture on the chip
notes: also called RA10680550
B1: no binding (tested: ≥1 µM) [1]; no binding (tested: ≥1 µM) [2].
